The values that follow come from patent US20250136687A1 (SHANDONG SIMCERE BIOPHARMACEUTICAL, published 2025).

Experiment [1] addresses T1, human CD3 on the cell surface (Jurkat cells, expanded human T cells, Jurkat-Lucia NFAT cells, human PBMC) (human, UniProt P07766 23-207; P04234 22-171; P09693 23-182). Briefly: cell-based or functional assay.
Experiment [2] has as its target T1, human CD3 on the cell surface (Jurkat …). Briefly: FACS, Jurkat cells, hybridoma screening. The procedure:
(§1) Suspension cells Jurkat cells (purchased from Cell bank of Chinese Academy of Sciences) were scale-up cultured in T-175 cell culture flasks to the logarithmic growth phase, the supernatant of the medium was discarded by centrifugation, and the cell pellet was washed 2 times with PBS. After counting the cells in the previous step, the cell pellet was resuspended with [PBS+2% (w/v) FBS] blocking solution to 4×10⁶ cells/ml, and added to a 96-well FACS reaction plate at 50 μl/well, the supernatant was removed by centrifugation, detection antibodies (initial concentration of […], gradient dilution at 1:5) and an IgG negative control were added at 100 μl/well, the cells were uniformly mixed, and incubated on ice for 1 h. The cells were centrifuged and washed 3 times with a PBS buffer. […] The cells were centrifuged and washed 5 times with a PBS buffer, and FACS (FACS Canto II, purchased from BD Company) was used for detection and result analysis. Data analysis was performed by software (CellQuest) to obtain the mean fluorescence intensity (MFI) of the cells. And then software (GraphPad Prism8) was used for analysis, data fitting, and EC50 value calculation.
(§2) The binding of the supernatant of the hybridoma to human CD3ε/δ-His (purchased from Sino Biological, Inc. (China), catalog number: CT038-H2508H) and monkey CD3ε/δ-His (purchased from Acrobiosystems, CDD-C52W4) was detected by ELISA for the screening of the supernatant of the hybridoma (see Example 10.1 below). The binding of the supernatant of the ELISA positive hybridoma clone to Jurkat cells and monkey T cells was detected by flow cytometry, and the activation of Jurkat-Lucia NFAT cells (purchased from InvivoGen, catalog number: jktl-nfat) by the supernatant of the hybridoma was detected by a reporter gene system (see Example 2.1, Example 2.4 and Example 7.1 below for the method).
(In general: A flow cytometer gives signals particle by particle.)

The target of experiment [3] is T2, cynomolgus monkey CD3 on the surface of expanded monkey T cells (cynomolgus monkey, UniProt Q95LI5 22-198; Q95LI8 22-171; Q95LI7 23-181).
T2 construct: whole, on cells; Endogenous CD3 within the TCR-CD3 complex on T cells expanded from cynomolgus monkey PBMC
Nature of the experiment: FACS, monkey T cells, hybridoma screening. The procedure:
as §1, §2

For the next experiment, the target named is T3, human CD3ε/δ-His (human, UniProt P07766 23-126; P04234 22-105).
T3 construct: Bought recombinant heterodimer with His tag; also called human CD3ε/δ protein
Nature of the experiment: ELISA, coated antigen, hybridoma screening.
From the text: as §2
(§3) To detect the binding activity of the humanized antibodies to CD3 protein, CD3 protein was diluted with PBS to the final concentration of […], then added to a 96-well ELISA plate at 50 μL/well, and the plate was sealed with a plastic film, and incubated overnight at 4° C. On the next day, the plate was washed 2 times with PBS, and a blocking solution [PBS+2% (v/v) BSA] was added for blocking at room temperature for 2 h. The blocking solution was poured off, and the antibody (initial concentration of 100 nM, and gradient dilution at 1:10) or a negative control antibody was added at 50 µl/well. After incubation at 37° C. for 2 h, the plate was washed 3 times with PBS. […] TMB substrate was added at 50 μl/well, and incubated at room temperature for 10 min, and then a stop solution (1.0 N HCl) was added at 50 μl/well. The OD450 nm values were read by an ELISA microplate reader (Multimode Plate Reader, EnSight, purchased from Perkin Elmer).
A general note: An ELISA detects its analyte on a solid surface through an enzyme-linked reagent.

For another experiment, the target named is T4, monkey CD3ε/δ-His (monkey, UniProt Q95LI5 22-117; Q95LI8 22-105).
T4 construct: Bought recombinant heterodimer with His tag
Briefly: ELISA, coated antigen, hybridoma screening.
From the text: as §2, §3

The target of experiment [4] is T1, human CD3 on the cell surface (Jurkat …). Briefly: FACS, Jurkat cells. As for the experimental part: (§4) The binding of the chimeric antibodies to CD3 on the cell surface was analyzed by detecting the binding of the antibodies to Jurkat cells and human T cells. Suspension cells Jurkat cells were scale-up cultured in T-75 cell culture flasks to the logarithmic growth phase, the supernatant of the medium was discarded by centrifugation, and the cell pellet was washed 2 times with PBS for later use. The expanded human T cells were washed 2 times with PBS for later use. After counting the cells in the previous step, the cell pellet was resuspended with [PBS+2% (w/w) BSA] blocking solution to 4×10⁶ cells/ml, and added to a 96-well FACS reaction plate at 50 μl/well, and then the chimeric antibody to be tested was added at 50 μl/well, and incubated at 4° C. for 1 h. The cells were centrifuged and washed 3 times with a PBS buffer. […] The cells were centrifuged and washed 5 times with PBS, and FACS (FACS Canto™, purchased from BD Company) was used for detection and result analysis. Data analysis was performed by software (CellQuest) to obtain the mean fluorescence […] (MFI) of the cells. And then software (GraphPad Prism8) was used for analysis, data fitting, and EC50 value calculation. The same method was used to simultaneously detect the binding of the chimeric antibodies to endogenous CD3 negative cells MOLT4 cells.

The target is the same in experiment [5]. Briefly: cell-based or functional assay. This is another data set of the same source.
Experiment [6] shares this target. Nature of the experiment: FACS, expanded human T cells. The procedure:
as §4

Experiment [7] addresses T2, cynomolgus monkey CD3 on the surface of …. Briefly: FACS, expanded monkey T cells. The procedure: as §4
FACS detection and data analysis were performed on the cryopreserved monkey T cells of Example 2.4 according to the method in Example 5.1.

The target in experiment [8] is T5, recombinant human CD3ε-ECD His protein (human, UniProt P07766 23-126).
T5 construct: extracellular domain; also called human CD3ε-His; CD3ε antigen protein; not shown: His tag
Briefly: SPR (Biacore), antibody captured on Protein A chip. As for the experimental part: Sample buffer and running buffer were HBS-EP+(10 mM HEPES, 150 mM NaCl, 3 mM EDTA, 0.05% surfactant P20) (GE Healthcare; BR-1006-69). The flow-through cell was set to 25° C. The sample block was set to 16° C. Both were pretreated with the running buffer. In each cycle, the antibody to be detected was first captured with a Protein A chip, and then a single concentration of CD3ε antigen protein (purchased from Sino Biological, Inc. (China), catalog number: 10977-H08H) was injected. The binding and dissociation processes of the antibody and the antigen protein were recorded, and finally a glycine solution (pH 1.5, GE Healthcare; BR-1003-54) was used to complete chip regeneration. The binding was measured by injecting different concentrations of recombinant human CD3ε-ECD His proteins in a solution for 240 s with a flow rate of 30 μL/min. The concentration started from 200 nM (see the detailed results for the actual concentration in the test) and was diluted at 1:1, making a total of 5 concentrations. The dissociation phase was monitored for up to 600 s and was triggered by switching from sample solution to running buffer. The surface was regenerated by washing with a 10 mM glycine solution (pH 1.5) for 30 s at a flow rate of 30 μL/min. Bulk refractive index difference was corrected by subtracting the response obtained from the goat anti-human Fc surface. Blank injection was also subtracted (=double reference). For calculation of apparent KD and other kinetic parameters, Langmuir 1:1 model was used.
In general terms: Surface plasmon resonance follows binding to a sensor surface in real time, without labels.

T4 sequence (Q95LI5 22-117, stated change not applied, form in doubt, chain 1 of 2): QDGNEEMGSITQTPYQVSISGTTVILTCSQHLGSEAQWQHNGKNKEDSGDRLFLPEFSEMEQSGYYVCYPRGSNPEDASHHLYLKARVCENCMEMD
T4 sequence (Q95LI8 22-105, stated change not applied, form in doubt, chain 2 of 2): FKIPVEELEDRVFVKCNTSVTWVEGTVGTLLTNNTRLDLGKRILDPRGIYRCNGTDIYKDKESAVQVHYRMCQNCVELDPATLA
T1 sequence (P07766 23-207, chain 1 of 3): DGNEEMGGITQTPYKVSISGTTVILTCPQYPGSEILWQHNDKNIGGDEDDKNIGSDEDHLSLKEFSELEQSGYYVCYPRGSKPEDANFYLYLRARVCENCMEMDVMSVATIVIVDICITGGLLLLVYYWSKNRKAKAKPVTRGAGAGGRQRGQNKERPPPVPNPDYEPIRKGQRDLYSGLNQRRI
T1 sequence (P04234 22-171, chain 2 of 3): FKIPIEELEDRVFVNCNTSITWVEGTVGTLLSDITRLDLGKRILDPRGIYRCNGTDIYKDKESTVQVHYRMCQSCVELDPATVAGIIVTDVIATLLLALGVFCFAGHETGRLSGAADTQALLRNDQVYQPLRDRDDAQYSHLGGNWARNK
T1 sequence (P09693 23-182, chain 3 of 3): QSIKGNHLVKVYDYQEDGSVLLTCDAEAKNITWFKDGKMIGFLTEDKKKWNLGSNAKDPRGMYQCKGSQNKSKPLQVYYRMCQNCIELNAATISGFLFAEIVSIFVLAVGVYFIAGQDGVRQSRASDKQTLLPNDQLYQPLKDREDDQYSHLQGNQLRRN
T3 sequence (P07766 23-126, stated change not applied, form in doubt, chain 1 of 2): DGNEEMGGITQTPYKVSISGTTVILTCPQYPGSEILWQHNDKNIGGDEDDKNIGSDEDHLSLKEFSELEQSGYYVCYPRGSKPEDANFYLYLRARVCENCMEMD
T3 sequence (P04234 22-105, stated change not applied, form in doubt, chain 2 of 2): as the sequence (Q95LI8 22-105, stated change not applied, form in doubt, chain 2 of 2) above, with V5I, K15N, V20I, T32S, N33D, N34I, A64T, N74S, L83V counted along it
T5 sequence (P07766 23-126): as the sequence (P07766 23-126, stated change not applied, form in doubt, chain 1 of 2) above

B1: 5-7.13 murine hybridoma antibody (supernatant) (antibody, V domains shown)
VH: QVQLQQPGTELVKPGASVKLSCKASGYTFTSYWVHWVKQRPGQGLEWIGNINPSDGVTNYNEKFKSRATLTVDKSSSTAYMQLSSLTSEDSAVYYCTRDAYGQYYFDDWGQGTTLTVSS
VL: DIVMSQSPSSLVVSAGEKVTMSCKSSQSLLNSRTRKNYLAWYQQKPGQSPKLLIYWASVRDSGVPDRFTGSGSGTDFTLTISNVQAEDLAVYYCIQSYYLRTFGGGTILEIK
notes: Tested as hybridoma supernatant
For the molecule B1, the “Reporter assay (RLU), Jurkat-Lucia NFAT, supernatant diluted by 4 times” value (from here on “Reporter assay (RLU) … by 4 times”) in [1] stood at 24500 RLU. Further, in experiment [1], the “Reporter assay (RLU), Jurkat-Lucia NFAT, supernatant diluted by 20 times” value (from here on “Reporter assay (RLU) … by 20 times”) amounted to 27800 RLU. Moreover, the Mean fluorescence intensity in experiment [2] came to 8280 MFI; in experiment [3], 16300 MFI. The OD450 in the experiment with human CD3ε/δ-His turned out to be 2.08 OD450; in the experiment with monkey CD3ε/δ-His, 2.09 OD450.

B2: 7-35.6 murine hybridoma antibody (supernatant) (antibody, V domains shown)
VH: EVQLVESGGGLVQPKGSLKLSCAASGFTFNTYAMNWVRQAPGKGLEWVGRIRSKINNYATYYGDSVKDRFTISRDDSQSMFYLQMNNLKTEDTAMYYCVIHENYGSISWFAYWGQGTLVTVSA
VL: QAVVTQESTLTTSPGETVTLTCRSSTGAVTTSNYANWVQEKPDHLFTGLIGGTNNRAPGVPARFSGSLIGDKAALTITGAQTEDEAIYFCALWYSNHWVFGGGTKLTVL
notes: as for B1
For B2, the “Reporter assay (RLU) … by 4 times” value in experiment [1] came to 27400 RLU. In experiment [1], the “Reporter assay (RLU) … by 20 times” value is 14800 RLU. For the same molecule, the results for the Mean fluorescence intensity in experiment [2] and in [3] were 284 MFI and 1650 MFI, respectively. For the same molecule, the values for the OD450 in the experiment with human CD3ε/δ-His and in the experiment with monkey CD3ε/δ-His were 1.56 OD450 and 1.46 OD450, respectively.

B3: 8-18.1 murine hybridoma antibody (supernatant) (antibody, V domains shown)
VH: QVQLQQSGAELARPGASVKMSCKASGYIFTMNTMHWVKQRPGQGLEWIGYINPYSGYTKYNQIFKDKATLTADKSSSTAYMRLSSLTSEDSAVYYCLRGGEGVWGQGTTLTVSS
VL: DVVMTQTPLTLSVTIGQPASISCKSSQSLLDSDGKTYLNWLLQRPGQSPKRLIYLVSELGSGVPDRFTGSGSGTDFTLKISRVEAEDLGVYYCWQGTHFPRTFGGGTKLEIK
notes: as for B1
On to B3, for which the “Reporter assay (RLU) … by 4 times” value in [1] came out at 27000 RLU. Moreover, the “Reporter assay (RLU) … by 20 times” value in [1] was 17800 RLU. Moreover, the Mean fluorescence intensity was 895 MFI in experiment [2] and 3100 MFI in [3]. For the same molecule, the results for the OD450 with human CD3ε/δ-His and with monkey CD3ε/δ-His were 2.04 OD450 and 2.14 OD450, respectively.

B4: 1-22.6 human-murine chimeric antibody (antibody, human IgG1, kappa, V domains shown)
VH: QIPLVQSGPELKKPGETVKISCKTSGYTFTSYGMSWVKQAPGKGLKWMGWINTYSGVPTYADDFKGRFVFSLDTSASTAFLQINNLKNEDTATYFCARLKNNPFCWGQGSTLTVFS
VL: DVLMTQSPLSLPVRLGDQASISCRSSQLILHSNGNTYLEWYLQKPGQSPKLLIYKVSNRFSGVPDRFSGSGSGTDFTLKISRVEAEDLGVYYCFQGSHFPWTFGGGTKLEIKR
As a reminder, the EC50 is the concentration giving half of the maximal effect. For orientation: Kd means the constant that tells how readily two partners part at equilibrium. Usually koff stands for the rate constant with which the complex falls apart. Usually kon stands for a measure of how fast the partners come together. In [4], B4 returned an EC50 of 4.28 nM and an MFI_Max of 2080 MFI. Besides, in experiment [5], the “EC50 (nM), luciferase reporter, Jurkat-Lucia NFAT cells” value is 11.6 nM and the “Maximum response value (RLU)” value came out at 31700 RLU. In experiment [6], this molecule had an EC50 of 18.1 nM and an MFI_Max of 15100 MFI. In experiment [7], the EC50 turned out to be 5.51 nM and the MFI_Max was 43600 MFI. Moreover, in experiment [8], the Kd worked out at 5.51 nM, the koff is 0.000699 s⁻¹ and the kon is 127000 M⁻¹ s⁻¹.
